According to the Immune Epitope Database (IEDB):

Tests used:
HLA-B*08:01 = test: IEDB peptide-MHC binding, purified MHC/competitive/radioactivity; filed as Kd, often an IC50 or EC50 that approximates it; ≥ and ≤ were set here for values at or beyond the usual limits of such assays
HLA-A*26:01 = test: as above
HLA-A*02:01 [1] = test: IEDB peptide-MHC binding, purified MHC/competitive/fluorescence; ≥ and ≤ were set here for values at or beyond the usual limits of such assays
HLA-A*30:02 = test: IEDB peptide-MHC binding, purified MHC/competitive/radioactivity; filed as Kd, often an IC50 or EC50 that approximates it; ≥ and ≤ were set here for values at or beyond the usual limits of such assays
HLA-B*15:01 = test: IEDB peptide-MHC binding, purified MHC/direct/fluorescence; filed as Kd, often an IC50 or EC50 that approximates it; ≥ and ≤ were set here for values at or beyond the usual limits of such assays
HLA-A*30:01 = test: IEDB peptide-MHC binding, purified MHC/competitive/radioactivity; filed as Kd, often an IC50 or EC50 that approximates it; ≥ and ≤ were set here for values at or beyond the usual limits of such assays
HLA-A*01:01 [2] = test: IEDB peptide-MHC binding, purified MHC/direct/fluorescence; filed as Kd, often an IC50 or EC50 that approximates it; ≥ and ≤ were set here for values at or beyond the usual limits of such assays
HLA-A*11:01 [3] = test: IEDB peptide-MHC binding, purified MHC/competitive/radioactivity; filed as Kd, often an IC50 or EC50 that approximates it; ≥ and ≤ were set here for values at or beyond the usual limits of such assays; details: source organism: Dengue virus 1 Brazil/97-11/1997
HLA-A*03:01 = test: IEDB peptide-MHC binding, purified MHC/direct/fluorescence; filed as Kd, often an IC50 or EC50 that approximates it; ≥ and ≤ were set here for values at or beyond the usual limits of such assays
HLA-A*02:01 [4] = test: as above
HLA-A*69:01 = test: as above
HLA-B*44:02 = test: IEDB peptide-MHC binding, purified MHC/competitive/radioactivity; filed as Kd, often an IC50 or EC50 that approximates it; ≥ and ≤ were set here for values at or beyond the usual limits of such assays
HLA-A*31:01 = test: IEDB peptide-MHC binding, purified MHC/direct/fluorescence; filed as Kd, often an IC50 or EC50 that approximates it; ≥ and ≤ were set here for values at or beyond the usual limits of such assays
HLA-B*27:05 = test: as above; details: source organism: SARS-CoV1
HLA-B*58:01 = test: as above
HLA-A*01:01 [5] = test: IEDB peptide-MHC binding, purified MHC/competitive/radioactivity; filed as Kd, often an IC50 or EC50 that approximates it; ≥ and ≤ were set here for values at or beyond the usual limits of such assays
HLA-A*02:02 = test: as above; details: source organism: SARS coronavirus Tor2
HLA-A*02:03 = test: as above; details: source organism: SARS coronavirus Tor2
HLA-A*02:06 = test: as above; details: source organism: SARS coronavirus Tor2
HLA-B*39:01 = test: IEDB peptide-MHC binding, purified MHC/competitive/fluorescence; filed as Kd, often an IC50 or EC50 that approximates it; ≥ and ≤ were set here for values at or beyond the usual limits of such assays; details: source organism: Bacillus anthracis str. A2012
HLA-A*11:01 [6] = test: IEDB peptide-MHC binding, purified MHC/direct/fluorescence; filed as Kd, often an IC50 or EC50 that approximates it; ≥ and ≤ were set here for values at or beyond the usual limits of such assays; details: source organism: SARS-CoV1
HLA-B*40:01 = test: as above
[7] = source organism: Vaccinia virus WR
[8] = source organism: Dengue virus 4 Philippines/H241/1956
[9] = source organism: Vaccinia virus Copenhagen
[10] = source organism: Dengue virus 1 Brazil/97-11/1997
[11] = source organism: Coxiella burnetii
[12] = source organism: Dengue virus 3 Martinique/1243/1999
[13] = source organism: Zaire ebolavirus
[14] = source organism: Dengue virus 2 Jamaica/1409/1983
[15] = source organism: Rickettsia prowazekii
[16] = source organism: Sudan ebolavirus
[17] = source organism: Salmonella enterica subsp. enterica serovar Typhimurium
[18] = source organism: Brucella melitensis
[19] = source organism: Haemophilus influenzae
[20] = source organism: Mycobacterium tuberculosis variant bovis

Sequence: MLKLQKCVM
- Kd (HLA-B*08:01; [7]): 9.25 nM

Sequence: EMADITGSSP
- Kd (HLA-A*26:01; [8]): ≥ 46.7 µM

Sequence: KCIEYVTLN
- IC50 (HLA-A*02:01 [1]; [9]): ≥ 125 µM

Sequence: RPQPMEHKY
- Kd (HLA-A*30:02; [10]): 134 nM

Sequence: AISAQVAAY
- Kd (HLA-B*15:01; source organism: Mycobacterium tuberculosis F11): 1270 nM

Sequence: LSIVSLFPLC
- Kd (HLA-A*30:01; [10]): 801 nM

Sequence: RFLTHYFTK
- Kd (HLA-A*01:01 [2]; [11]): ≥ 20 µM

Sequence: GSLLTCAKFK
- Kd (HLA-A*11:01 [3]): 96.8 nM
- Kd (HLA-A*30:01; [10]): 433 nM

Sequence: GCGRGGWSY
- Kd (HLA-A*30:02; [12]): 439 nM

Sequence: KVKFYKREL
- Kd (HLA-A*30:01; [7]): 41.9 nM

Sequence: RSQSSTIIV
- Kd (HLA-A*30:01; [7]): 559 nM

Sequence: IRSEELSFT
- IC50 (HLA-A*02:01 [1]; [13]): ≥ 2410 µM

Sequence: ETKQTGSASS
- Kd (HLA-A*26:01; [14]): ≥ 25 µM

Sequence: CMKSFFGWK
- Kd (HLA-A*03:01; source organism: Influenza A virus (A/duck/Fujian/17/2001(H5N1))): 848 nM

Sequence: RRLTSREVLL
- Kd (HLA-B*08:01; [10]): 5480 nM

Sequence: PLGVIHNST
- IC50 (HLA-A*02:01 [1]; [13]): ≥ 120 µM

Sequence: ETPNMDVIGE
- Kd (HLA-A*26:01; [12]): 1.1 µM

Sequence: RTICTLPYL
- Kd (HLA-A*30:01; [7]): 0.738 nM

Sequence: SFRRFVNKL
- Kd (HLA-B*08:01; [9]): 1380 nM

Sequence: RKKARSTPF
- Kd (HLA-B*08:01; [14]): 413 nM

Sequence: ALASFLFGF
- Kd (HLA-B*15:01; source organism: Pseudomonas aeruginosa): 745 nM

Sequence: FLKHKYGSL
- Kd (HLA-B*08:01; [7]): 0.135 nM

Sequence: RYRMHPMSK
- Kd (HLA-A*30:01; [7]): 0.0676 nM

Sequence: MLIGIEILN
- IC50 (HLA-A*02:01 [1]; [7]): 0.554 µM

Sequence: KVLDGSPIS
- Kd (HLA-A*30:01; [7]): 430 nM

Sequence: VVGKPYKEV
- Kd (HLA-A*02:01 [4]; [15]): 1960 nM
- Kd (HLA-A*69:01; [15]): 0.605 µM

Sequence: NEMVLLTMK
- Kd (HLA-B*44:02; [10]): 865 nM

Sequence: RLYYDSMSY
- Kd (HLA-A*01:01 [2]; source organism: SARS-CoV1): 7.95 µM
- Kd (HLA-A*02:01 [4]; source organism: SARS-CoV1): ≥ 22800 nM
- Kd (HLA-A*31:01; source organism: SARS-CoV1): 6940 nM
- Kd (HLA-B*15:01; source organism: SARS-CoV1): 130 nM
- Kd (HLA-B*27:05): 4.81 µM
- Kd (HLA-B*58:01; source organism: SARS-CoV1): 778 nM

Sequence: FTEENQWDSA
- Kd (HLA-A*01:01 [5]; [12]): 0.197 µM

Sequence: YVHKAQGTG
- IC50 (HLA-A*02:01 [1]; [16]): ≥ 236 µM

Sequence: SSPGPTTEA
- IC50 (HLA-A*02:01 [1]; [16]): 14.6 µM

Sequence: GMHMVAGHD
- IC50 (HLA-A*02:01 [1]; [13]): 67.8 µM

Sequence: KQPNRPLFI
- Kd (HLA-A*02:01 [4]; [17]): 6000 nM
- Kd (HLA-A*69:01; [17]): ≥ 20 µM

Sequence: KLWAQCVQL
- Kd (HLA-A*02:01 [4]; source organism: SARS-CoV1): 109 nM
- Kd (HLA-A*03:01; source organism: SARS-CoV1): 2860 nM
- Kd (HLA-A*31:01; source organism: SARS-CoV1): 304 nM
- Kd (HLA-A*02:02): 12.7 nM
- Kd (HLA-A*02:03): 194 nM
- Kd (HLA-A*02:06): 9.47 nM

Sequence: WMARRHAER
- Kd (HLA-A*03:01; [18]): ≥ 20000 nM
- Kd (HLA-A*31:01; [18]): 13.9 nM

Sequence: VKVLRPTPRG
- Kd (HLA-A*30:01; source organism: Dengue virus 4 Dominica/814669/1981): 6080 nM

Sequence: ILWGYGFLQ
- Kd (HLA-A*02:01 [4]; [19]): 218 nM
- Kd (HLA-A*69:01; [19]): 12.9 µM
- Kd (HLA-B*58:01; [19]): 4790 nM

Sequence: RNIARHLAL
- Kd (HLA-B*08:01; [7]): 3.24 nM

Sequence: FHMSKPSDL
- Kd (HLA-B*39:01): 7.7 nM

Sequence: TSSDTYACW
- Kd (HLA-A*11:01 [6]): 19.4 µM
- Kd (HLA-B*58:01; source organism: SARS-CoV1): 14.5 nM

Sequence: REKIDGVKL
- Kd (HLA-B*40:01; source organism: Influenza A virus (A/Hong Kong/1131/1998(H1N1))): 46.9 nM

Sequence: IIGRRLQRL
- Kd (HLA-B*08:01; [8]): 128 nM

Sequence: QLCDEITIL
- Kd (HLA-A*02:01 [4]; [17]): 744 nM
- Kd (HLA-B*15:01; [17]): 1200 nM

Sequence: AELRHLNPL
- Kd (HLA-B*40:01; source organism: Mycobacterium tuberculosis variant bovis BCG str. Pasteur 1173P2): 44.2 nM

Sequence: LALITVSGLY
- Kd (HLA-A*01:01 [5]; [8]): 12.7 µM
- Kd (HLA-A*30:02; [8]): 5.26 nM

Sequence: KTNTGTIGA
- Kd (HLA-A*30:01; [14]): 2.94 nM

Sequence: HVLMHSPLV
- Kd (HLA-A*30:01; [7]): 29.9 nM

Sequence: AGGMLIACY
- Kd (HLA-A*30:02; [10]): 460 nM

Sequence: AICSAVPVHW
- Kd (HLA-B*44:02; [12]): 2400 nM

Sequence: LLKMPFRMV
- Kd (HLA-B*08:01; [7]): 7.12 nM

Sequence: CPRKRKTVE
- Kd (HLA-B*08:01; [7]): 581 nM

Sequence: SPMPRHHSI
- Kd (HLA-B*08:01; [7]): 1110 nM

Sequence: FTNMEVQLI
- Kd (HLA-A*01:01 [5]; [10]): 5.85 µM

Sequence: ALPGPDGVV
- Kd (HLA-A*02:01 [4]; [20]): 553 nM
- Kd (HLA-A*69:01; [20]): ≥ 20 µM

Sequence: PTWFGISFR
- Kd (HLA-A*03:01; [11]): ≥ 20000 nM
- Kd (HLA-A*31:01; [11]): 209 nM
